The values below come from US20200317768A1 (published 2020).

Positions count from the first letter of the chain named. Names and notes keep the numbering of the source.

T1: cynomolgus monkey FcγRIIa2 extracellular domain, C-terminal His-tag (cynomolgus monkey)
T1 construct: also called cyno FcγRIIa2; cynoFcgRIIa2; not shown: His-tag added to C-terminus
T1 chain: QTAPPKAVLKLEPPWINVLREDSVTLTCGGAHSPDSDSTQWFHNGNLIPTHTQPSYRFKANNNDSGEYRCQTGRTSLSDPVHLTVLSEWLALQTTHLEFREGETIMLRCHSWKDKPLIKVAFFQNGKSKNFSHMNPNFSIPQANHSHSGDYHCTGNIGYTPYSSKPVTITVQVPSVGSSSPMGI

T2: cynomolgus monkey FcγRIIb extracellular domain, C-terminal His-tag (cynomolgus monkey)
T2 construct: also called cyno FcγRIIb; cynoFcγRIIb; not shown: His-tag added to C-terminus
T2 chain: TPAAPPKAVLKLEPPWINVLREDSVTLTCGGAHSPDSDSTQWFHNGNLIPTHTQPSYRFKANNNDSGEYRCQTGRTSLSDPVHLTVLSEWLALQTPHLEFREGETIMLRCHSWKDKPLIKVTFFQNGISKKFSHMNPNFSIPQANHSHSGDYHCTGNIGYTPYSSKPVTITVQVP

T3: human FcγRIIaR extracellular domain, C-terminal His-tag (human, UniProt P12318 34-217)
T3 construct: also called human FcγRIIa (type R); FcgRIIaR; not shown: His-tag added to C-terminus
T3 chain: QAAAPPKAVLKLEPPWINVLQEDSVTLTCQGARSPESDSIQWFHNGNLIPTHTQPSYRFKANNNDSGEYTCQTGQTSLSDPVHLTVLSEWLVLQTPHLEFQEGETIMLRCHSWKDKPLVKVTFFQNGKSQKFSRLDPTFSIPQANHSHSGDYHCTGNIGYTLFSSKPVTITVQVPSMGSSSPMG

T4: human FcγRIIb extracellular domain, C-terminal His-tag (human, UniProt P31994 43-217)
T4 construct: also called humanFcgRIIb; not shown: His-tag added to C-terminus
T4 sequence: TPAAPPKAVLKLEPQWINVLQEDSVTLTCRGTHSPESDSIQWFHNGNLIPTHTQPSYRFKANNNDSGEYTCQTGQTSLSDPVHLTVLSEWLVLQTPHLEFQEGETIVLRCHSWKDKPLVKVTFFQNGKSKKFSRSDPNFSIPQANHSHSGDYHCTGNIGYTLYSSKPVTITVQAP

B1: M103205H795-MY205 / M103202L889-SK1 (antibody, human IgG1, kappa)
heavy: QVTLKESGPVLVKPTETLTLTCTVSGIDLSHDDISWVRQAPGKGLEWVGIISYAGSTYYASWAKGRLTISKDTSKNQVVLTMTNMDPVDTATYYCARGVPAYSHGGDLWGQGTLVTVSSASTKGPSVFPLAPSSKSTSGGTAALGCLVKDYFPEPVTVSWNSGALTSGVHTFPAVLQSSGLYSLSSVVTVPSSSLGTQTYICNVNHKPSNTKVDKKVEPKSCDKTHTCPPCPAPELLNGPSVFLFPPKPKDTLMISRTPEVTCVVVDVSDEDPEVKFNWYVDGVEVHNAKTKPREELYNSTYRVVSVLTVLHQDWLNGKEYKCKVSNKALPKPIEKTISKAKGQPREPQVYTLPPSREEMTKNQVSLTCLVKGFYPSDIAVEWESNGQPENNYKTTPPVLDSDGSFFLYSKLTVDKSRWQQGNVFSCSVMHEALHNHYTQKSLSLSP
light: DIVMTQSPATLSLSPGERATLSCTSSQSVYHANWLSWFQQKPGQPPKLLIYWASTLAYGVPSRFSGSGSGTDFTLTISSLQPEDAATYYCAGGYGGGRYAFGQGTKVEIKRTVAAPSVFIFPPSDEQLKSGTASVVCLLNNFYPREAKVQWKVDNALQSGNSQESVTEQDSKDSTYSLSSTLTLSKADYEKHKVYACEVTHQGLSSPVTKSFNRGEC
notes: CH with G236N/H268D/Q295L/A330K against SG1 (EU numbering); also called MS1032LO06-MY205
B2: M103205H795-MY344 / M103202L889-SK1 (antibody, human IgG1, kappa)
heavy: B1 heavy with Q313R, D415K
light: B1 light
notes: CH with G236N/H268D/Q295L/Q311R/A330K/D413K against SG1 (EU numbering); also called MS1032LO06-MY344
B3: M103205H795-MY335 / M103202L889-SK1 (antibody, human IgG1, kappa)
heavy: B1 heavy with N238T, L297Q, Q313R, D415K
light: B1 light
notes: CH with G236T/H268D/Q311R/A330K/D413K against SG1 (EU numbering); also called MS1032LO06-MY335
B4: M103205H795-MY351 / M103202L889-SK1 (antibody, human IgG1, kappa)
heavy: B1 heavy with L297Q, Q313R, D415K
light: B1 light
notes: CH with G236N/H268D/Q311R/A330K/D413K against SG1 (EU numbering); also called MS1032LO06-MY351
B5: M103205H795-PK2 / M103202L889-SK1 (antibody, human IgG1, kappa)
heavy: B1 heavy with D270E, L297Q, P398M, S402R, D415K
light: B1 light
notes: CH with G236N/H268E/A330K/P396M/S400R/D413K against SG1 (EU numbering); also called MS1032LO06-PK2; MS103205H795-PK2

For the first assay, the target named is T1, cynomolgus monkey FcγRIIa2 …. The assay can be described thus: SPR (BIACORE), antibody captured, FcγR analyte. How it is done: (§1) The kinetic analysis of interactions between these antibodies and FcγR was carried out using BIACORE® T200 or BIACORE® 4000 (GE Healthcare). HBS-EP+ (GE Healthcare) was used as the running buffer, and the measurement temperature was set to 25° C. A chip produced by immobilizing Protein A. Protein A/G or mouse anti-human IgG kappa light chain (BD Biosciences) onto a Series S Sensor Chip CM4 or CM5 (GE Healthcare) by the amine-coupling method was used. […] After the measurement, the antibody captured on the chip was washed off by allowing reaction with 10 mM glycine-HCl, pH1.5 and 25 mM NaOH so that the chip was regenerated and used repeatedly. The sensorgrams obtained as measurement results were analyzed by the 1:1 Langmuir binding model using the BIACORE® Evaluation Software to calculate the binding rate constant ka (L/mol/s) and dissociation rate constant kd (l/s), and the dissociation constant KD (mol/L) was calculated from these values. […] Regarding such interactions, KD values were calculated using the following 1:1 binding model described in BIACORE® T100 Software Handbook BR1006-48 Edition AE.
(§2) The behavior of interacting molecules according to the 1:1 binding model on BIACORE® can be described by Equation 1: Req=C·R max/(KD+C)+RI, wherein, Req is a plot of steady-state binding levels to analyte concentration. C is concentration, RI is bulk refractive index contribution in the sample, and Rmax is analyte binding capacity of the surface. When this equation is rearranged, KD can be expressed as Equation 2: KD=C·Rmax/(Req−RI)−C. KD can be calculated by substituting the values of Rmax, RI, and C into Equation 1 or Equation 2. From the current measurement conditions, RI=0, C=2 μmol/L can be used.
On the technique in general: In SPR one partner is held on a chip, and binding of the other changes the refractive index at the surface.
The Kd is the equilibrium constant for the complex coming apart. Consider B1, for which the Kd was found to be 1100 nM.
In turn, B2 registered a Kd of 1100 nM.
As for B3, binding was put at a Kd of 1700 nM.
The molecule B4 registered a Kd of 760 nM.
B5: binding was characterised by a dissociation constant (Kd) of 1300 nM.

The next assay has as its target T2, cynomolgus monkey FcγRIIb extracellular …. The assay is described as follows: SPR (BIACORE), antibody captured, FcγR analyte. The protocol: as §1, §2
Consider B1, for which the Kd came to 250 nM.
Same read-out and setting: the value for B2 was 310 nM; that for B3 was 650 nM; that for B4 was 350 nM.
B5 registered a Kd of 380 nM.

The target in another assay is T5, cynomolgus monkey FcγRIIIaS extracellular domain, C-terminal His-tag (cynomolgus monkey, UniProt A3RFZ7 21-206 (rhesus entry)).
T5 construct: also called cyno FcγRIIIaS; cynoFcγRIIIaS; not shown: His-tag added to C-terminus
T5 sequence (A3RFZ7 21-206): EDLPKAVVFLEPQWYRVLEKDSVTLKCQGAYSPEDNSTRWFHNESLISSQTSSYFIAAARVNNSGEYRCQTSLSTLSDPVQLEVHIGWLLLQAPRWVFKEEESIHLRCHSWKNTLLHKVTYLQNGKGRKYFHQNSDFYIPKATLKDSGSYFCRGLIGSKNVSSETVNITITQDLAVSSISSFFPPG
The assay is described as follows: SPR (BIACORE), antibody captured, FcγR analyte. The protocol: as §1, §2
Consider B1, for which the affinity, expressed as Kd, was 6000 nM.
Still for that read-out and setting: the value for B2 was 4900 nM.
For the molecule B3, the dissociation constant Kd is 1500 nM.
The same measure, in the same setting: then B4, with 5200 nM; and B5, with 3900 nM.

Another assay has as its target T3, human FcγRIIaR extracellular domain, …. The assay is described as follows: SPR (BIACORE), antibody captured, FcγR analyte. The protocol:
as §1, §2
B1 yielded an equilibrium dissociation constant (Kd) of 1300 nM.
Turning to B2, the Kd was 1200 nM.
Still for that read-out and setting: the value for B3 was 290 nM; that for B4 was 1800 nM; that for B5 was 1100 nM.

For a further assay, the target named is T4, human FcγRIIb extracellular domain, …. The assay can be described thus: SPR (BIACORE), antibody captured, FcγR analyte. How it is done: as §1, §2
B1 showed a Kd of 560 nM.
With B2, binding was put at a Kd of 720 nM.
As to B3, the Kd stood at 2300 nM.
On the same count and under the same terms, then B4, with 1200 nM; and B5, with 590 nM.

The target in the next assay is T6, human FcγRIIIaV extracellular domain, C-terminal His-tag (human, UniProt P08637 17-208).
T6 construct: also called FcgRIIIaV; not shown: His-tag added to C-terminus
T6 sequence (P08637 17-208 F176V): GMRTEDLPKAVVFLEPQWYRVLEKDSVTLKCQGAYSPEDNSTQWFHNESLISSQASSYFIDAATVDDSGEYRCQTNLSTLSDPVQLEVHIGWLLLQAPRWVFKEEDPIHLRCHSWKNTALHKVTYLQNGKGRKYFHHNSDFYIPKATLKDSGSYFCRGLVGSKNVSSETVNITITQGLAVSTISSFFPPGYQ
The assay can be described thus: SPR (BIACORE), antibody captured, FcγR analyte. The protocol:
as §1, §2
Molecule B1 showed a Kd of 13000 nM.
Regarding B2, the Kd came out at 19000 nM.
Still for that read-out and setting: then B3, with 5000 nM; and B4, with 14000 nM.
For B5, the Kd was 13000 nM.
